Results taken from the supplement of paper PMC7125110.
± gives the standard error. Fewer inactive variants are shown than the library holds.

B1: glmS ribozyme (parent)
chain: AUAAAAGCGCCAGAACUACAGAAAUGUAGUUGACGAGGAGGAGGUUUAUCGAAUUUUCGGCGGAUGCCUCCAAA

Variants of: B1
Assay: self-cleavage kobs at 10000 uM GlcN6P; higher = faster cleavage; RNA array
Details: with glucosamine-6-phosphate
Summary of the method: (§1)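 Glucosamine-6-phosphate (40 μM to 10 mM) in HEPES/KCl/Mg(OAc)2 buffer was flowed over sequenced MiSeq chips, and tiles were imaged over ~14 h. Barcoded ribozyme variants there had been transcribed in situ by E. coli RNA polymerase and were tracked through a hybridised Cy3 probe at 37 °C. One- or two-exponential decay fits to per-tile medians, normalised to baseline and to non-cleaving reference variants, gave kobs. kcat and KM came from weighted Michaelis–Menten fits across concentrations.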

| Variant | self-cleavage kobs at 10000 uM GlcN6P [s⁻¹] |
| --- | --- |
| A12C A15U U31C | 6.96e-05 ± 1.7e-05 |
| U30G G62A C67A | < 1e-05 |
| C10G A14U C16A U54G C61U G62U | < 1e-05 |
| A36C G38C A64C | < 1e-05 |
| C8A A42G G66U | < 1e-05 |
| C16A A64G C67G C70U | < 1e-05 |
| G13U G35A U57A U65G | < 1e-05 |
| U30A C61A | < 1e-05 |
| A15G U49A G62U | < 1e-05 |
| C11A G21U | 0.000164 ± 3.4e-05 |
| A14G U47A G59U C70U | 9.51e-05 ± 1.8e-05 |
| G60C A64G U65G | < 1e-05 |
| A14C G41C | 3.51e-05 ± 1.1e-05 |
| C58U G63C C70U | < 1e-05 |
| C16U C50G C67U | 0.000119 ± 2.9e-05 |
| U46A U47G G66C | 0.000401 ± 9.3e-05 |
| C8A A15G A39C C70G | < 1e-05 |
| A33C G38U C68U | < 1e-05 |
| U47A G59A C71U | 6.73e-05 ± 2.5e-05 |
| C11G G35C U49G | < 1e-05 |
| A6U G29U G62C | < 1e-05 |
| U45A G62A | < 1e-05 |

| Variant | self-cleavage kobs at 10000 uM GlcN6P [s⁻¹] |
| --- | --- |
| G13A G51U G60U | < 1e-05 |
| C8G G9U G66C C68G | < 1e-05 |
| C8A G44A U46G C70G | < 1e-05 |
| C8U A12C A15U G38U A64U | < 1e-05 |
| A15U C50A G51A A53G | < 1e-05 |
| C11U U45A | 0.002 ± 0.00051 |
| G35U A36G U45C U65G | < 1e-05 |
| C34A G35C A48U | < 1e-05 |
| U30G U45A C71G | 0.000315 ± 5.9e-05 |
| A12C G38U A52U C58A U65A C67U | < 1e-05 |
| A6G G9U G35U G38A G40A | < 1e-05 |
| C8A C34A A64G | < 1e-05 |
| C58U G59C C61G G62C A64G U65A G66U | < 1e-05 |
| G26U U49G U56A | 0.00027 ± 6.8e-05 |
| G37C G59U C61G | < 1e-05 |
| C11U A15G A52G | 0.0001 ± 2.4e-05 |
| G38U G41A U45G U56A G59U | < 1e-05 |
| G13C G32A U45G A52C C70U | < 1e-05 |
| A64G U69C | 0.000688 ± 0.00018 |
| C11U A52G G63C U69G | 8.28e-05 ± 1.9e-05 |
| C16A G32U A33U C50G C67U | 0.000275 ± 9.8e-05 |
| A42U A48U U65C | < 1e-05 |

| Variant | self-cleavage kobs at 10000 uM GlcN6P [s⁻¹] |
| --- | --- |
| G35A U54G G62C | < 1e-05 |
| G35C G51U G62U | < 1e-05 |
| G32C U54A U56G | 3.42e-05 ± 1.1e-05 |
| A14U G43U G51A | < 1e-05 |
| G32U U57A C68G | 6.42e-05 ± 2.1e-05 |
| C8A C11G U49C C67G | < 1e-05 |
| C50U A64C C71A | < 1e-05 |
| U49A C50G G51A C61A G62U | < 1e-05 |
| C11U G32U G35U A64U | < 1e-05 |
| U2G U47C | 0.00421 ± 0.0012 |
| G32C A36C A39U U69G | < 1e-05 |
| G13U U30A G43C | < 1e-05 |
| U55G G59C C70A | 0.000104 ± 2.7e-05 |
| A39U U55C U65C | 0.00435 ± 0.00052 |
| A36C A52U C58U G63A | < 1e-05 |
| U31C G35A G40C C58U G60A | < 1e-05 |
| A33U G41U U49A A52U U69A | < 1e-05 |
| A15G U65C C67U | 7.42e-05 ± 1.7e-05 |
| C8U G40U C61U C67U | < 1e-05 |
| A15G C16U A39U | 0.00651 ± 0.0013 |
| A14U C34U C68G | 7.15e-05 ± 2.1e-05 |
| G29C G32C A39G | 7.25e-05 ± 1.8e-05 |

Variants of: B1
Assay: self-cleavage kobs at 2500 uM GlcN6P; higher = faster cleavage; RNA array
Details: with glucosamine-6-phosphate
Summary of the method: as §1

| Variant | self-cleavage kobs at 2500 uM GlcN6P [s⁻¹] |
| --- | --- |
| A33G A53U G60U C71G | < 1e-05 |
| G13U G35A U57A U65G | < 1e-05 |
| C11A G21U | 9.85e-05 ± 2.9e-05 |
| C8A C58A G59C | < 1e-05 |
| A15U G51U U65A | < 1e-05 |
| C10U C11A C70A | 7.8e-05 ± 2.7e-05 |
| C11G G35C U49G | < 1e-05 |
| G35U A36G U45C U65G | < 1e-05 |
| G37A G38C U56G C70G | 6.06e-05 ± 1.5e-05 |
| C11U A12C G32A G41A C68A | < 1e-05 |
| A24C G29U A64G | 0.000837 ± 0.00014 |
| G13U U49C C50A G59A C70G | 3.99e-05 ± 2e-05 |
| A12U U31G C58G | 7.42e-05 ± 2.7e-05 |
| U30C G41U A42C | < 1e-05 |
| C16G A39C C61U G63C | < 1e-05 |
| G32C A36C A39U U69G | < 1e-05 |
| G7A G51U U54G G63A | < 1e-05 |
| C11G G51A A64C | < 1e-05 |
| A36G C50G C67G | 0.000124 ± 5.6e-05 |
